What all share (type): biochemical
Data set [1] in a line: Oxidase activity testing against vanoxerine. Conditions: substrate Vanoxerine. The protocol: (§1) Lyophilised material of recombinant P450, ferredoxin and ferredoxin reductase proteins was made as described in Example 4 and reconstituted in high purity water to the original volume. Biocatalysis was performed with shaking incubation at 27° C. in the following conditions: 100 mM potassium phosphate pH 8.0, 5 mM MgCl2 (both present in the reconstituted enzyme preparation) and 0.1 mg/ml substrate compound such as ambroxide (Sigma-Aldrich, UK), carbamazepine (Sigma-Aldrich, UK), diclofenac (Sigma-Aldrich, UK), tivantinib (MedChemtronica, Sweden), clarithromycin (Tokyo Chemical Industry, Japan), sclareol (Sigma-Aldrich, UK), celecoxib (LC Laboratories, USA), buparvaquone (Sigma-Aldrich, UK), BIRB796 (MedChemExpress, USA), vanoxerine (CiVentiChem, USA), valsartan (Tokyo Chemical Industry, Japan), ruxolitinib (LC Laboratories, USA), perindopril (Selleckchem, USA), solifenacin (Key Organics, UK), 7-ethoxycoumarin (Tokyo Chemical Industry, Japan), tofacitinib (LC Laboratories, USA), ebastine (Key Organics, UK), efavirenz (Key Organics, UK), propanalol (Sigma-Aldrich, UK) and tolbutamide (Key Organics, UK).
(§2) Concentrations of P450, ferredoxin and ferredoxin reductase were as extracted (Example 4). Reactions were initiated by addition of 10× stock of cofactor mixture (50 mM G6P, 10 mM NADP+, 10 UN/ml G6PDH) to provide a final volume of e.g., 10 μl to 90 μl for 100 μl total reaction volumes. After 16-20 hours, reactions were extracted with an equal volume of acetonitrile, centrifuged to remove precipitated proteins and conversion assessed by UPLC-MS analysis.
(§3) UPLC Data were Obtained as Follows: • Column: Acquity UPLC BEH Shield RP18 1.7 μm 2.1 mm i.d. 50 mm length • Solvents: H2O, B: Acetonitrile, both with 0.1% Formic acid • Flow rate: 1.0 ml/min • Detector: Waters Acquity UPLC PDA (UV-Vis detection) and Waters Acquity UPLC QDA (MS)
(§4) Representative results for the % conversions of various substrates to products by enzymes with mutations at position T109 or L198 and double mutants at T109 and 1129/L198 are shown in Table 4 below.

Data set [2] is described as follows: Oxidase activity testing against 7-ethoxycoumarin. Conditions: substrate 7-ethoxycoumarin. The protocol:
as §1, §2, §3, §4

A short description of data set [3]: Oxidase activity testing against buparvaquone. The conditions noted are these: substrate Buparvaquone. The protocol: as §1, §2, §3, §4
Data set [4] can be described thus: Oxidase activity testing against propanalol. Conditions: substrate Propanalol. The method, then: as §1, §2, §3, §4
Data set [5] in a line: Oxidase activity testing against valsartan. The conditions noted are these: substrate Valsartan. The protocol: as §1, §2, §3, §4
Data set [6] is described as follows: Oxidase activity testing against ruxolitinib. Conditions: substrate Ruxolitinib. The protocol: as §1, §2, §3, §4
The nature of data set [7]: Oxidase activity testing against sclareol. The conditions noted are these: for Average % conversion: substrate Sclareol, UPLC-MS UV or MS peak areas. The method, then:
as §1, §2, §3, §4

A short description of data set [8]: Oxidase activity testing against ebastine. The conditions noted are these: for Average % conversion: substrate Ebastine. The protocol: as §1, §2, §3, §4
The nature of data set [9]: Oxidase activity testing against BIRB796. Conditions: substrate BIRB796. The protocol: as §1, §2, §3, §4
Data set [10] is described as follows: Oxidase activity testing against celecoxib. The conditions noted are these: substrate Celecoxib. The protocol: as §1, §2, §3, §4
Data set [11] is described as follows: Oxidase activity testing against tofacitinib. Conditions: substrate Tofacitinib. The protocol:
as §1, §2, §3, §4

The nature of data set [12]: Oxidase activity testing against solifenacin. Conditions: substrate Solifenacin. The method, then:
as §1, §2, §3, §4

Data set [13] can be described thus: Oxidase activity testing against tolbutamide. The conditions noted are these: substrate Tolbutamide. The protocol:
as §1, §2, §3, §4

Data set [14] can be described thus: Oxidase activity testing against efavirenz. The conditions noted are these: substrate Efavirenz. The protocol:
as §1, §2, §3, §4

Data set [15] in a line: Oxidase activity testing against perindopril. Conditions: substrate Perindopril. The method, then: as §1, §2, §3, §4
Data set [16] is described as follows: Oxidase activity testing against carbamazepine. The conditions noted are these: for +16 Da (1.18 min) 253 m/z: 2-hydroxycarbamazepine; for +16 Da (1.18 min) 253 m/z / +16 Da (1.14 min) 253 m/z / Parent (1.31 min) 237 m/z: relative MS peak area; for +16 Da (1.14 min) 253 m/z: carbamazepine epoxide; for reaction products from carbamazepine (in words): new product at 1.18 minutes identified as 2-hydroxycarbamazepine, epoxide at 1.14 minutes; for Parent (1.31 min) 237 m/z: remaining carbamazepine, 0.1 mg/ml, 27° C., 16-20 hours; for Average % conversion: substrate carbamazepine, relative MS peak areas. The method, then:
as §1, §2, §3
To confirm the identities of reaction products where known, their chromatographic retention time, mass and ultraviolet spectra were compared with those of authentic metabolite standards.
Representative results for the % conversions of carbamazepine to oxidised (+16 Da) products for single point mutants at position L198 are shown in Table 3 below.

Data set [17] can be described thus: Oxidase activity testing against clarithromycin. Conditions: for Average % conversion: substrate Clarithromycin. The protocol: as §1, §2, §3, §4

We go through five molecules from US20240263208A1, “CYTOCHROME P450 ENZYME” (HYPHA DISCOVERY LTD., priority 2021, published 2024).

Where a chain is given by its changes, count along the chain named. Numbers in names are those of the source.

B1: SeuC10M9: P450SeuC10 with L198A mutation, SEQ ID NO: 22 (protein)
chain: MKIGTTHLTRLRGLSMTELTDITGPAAQAETVAFPQDRTCPYHPPTGYDPLRDGRPLSRVTLYDGREVWLVTAQATARALLADPRLSTDRRRDGFPVPTPRFAAGRDRTLALLGLDDPEHHRQRRLLIPSFTLKRATAQRPWIQRIVDELLDAMIARGPVADLVSAFALPVPSMVICELLGVPYADHEFFEEQSRRLARGPTGADTTDARDRLEAYLGDLIDAKAKEAEPGDGILDDLVHNRLRAGELDRSVLVSLAVILLVAGHETTANMISLGTYTLLQHPERLAELRADPSLLPAVVEELLRMLSIAEGLQRLALEDIEIDGITIRAGEGVLFSTSVINRDTAVYEDPDDLDFHRADRHHVAFGFGIHQCLGQNLARAELEIALGSLFTRLPGLRLAAPAEEIPFKPGDTVQGMLELPVTW
modifications: SeuC10M9
For the molecule B1, the Average % conversion in data set [1] (Batch 1) amounted to 23%; in [2] (Batch 1) it was 10.7%; in [3] (Batch 1), 1.2%; in data set [4] (Batch 1), 0%; in data set [5] (Batch 1), 6.9%; in [6] (Batch 1), 55.1%. The Average % conversion in data set [7] (Batch 1) came out at 75.2%; in [8] (Batch 1) it was 25.1%; in data set [9] (Batch 1), 10%; in [10] (Batch 1) it was 2.6%; in data set [11] (Batch 1), 6.2%; in [12] (Batch 1) it was 0.8%. Also, the Average % conversion is listed as 14.7% in data set [13] (Batch 1); 3.1% in data set [14] (Batch 1); 15.7% in [15] (Batch 1); 16.9% in [16]; 0% in data set [17] (Batch 1). Besides, in [7], the “conversion of sclareol compared to wild-type (in words)” value is “significantly increased conversion”. Moreover, the “conversion of ebastine compared to wild-type (in words)” value in [8] is “significantly increased conversion”. Moreover, the “+16 Da (1.18 min) 253 m/z” value in data set [16] came to 1.1%. Moreover, the “+16 Da (1.14 min) 253 m/z” value in data set [16] came to 15.8%. The “reaction products from carbamazepine (in words)” value (from here on “reaction products”) in [16] was “produce a new product”. For the same molecule, the “Parent (1.31 min) 237 m/z” value in [16] is 83.1%.

B2: M31: P450SeuC10 with T109F and I259A double mutations, SEQ ID NO: 128 (protein)
chain: B1 chain with T109F, A198L, I259A
modifications: SeuC10M31
On to B2, for which the Average % conversion in data set [1] (Batch 2) amounted to 11.4%; in data set [2] (Batch 2) it was 2.9%; in data set [3] (Batch 2), 0%; in data set [4] (Batch 2) it was 0%; in data set [5] (Batch 2), 0.6%; in data set [6] (Batch 2), 46.9%. Moreover, the Average % conversion in data set [7] (Batch 2) amounted to 1.3%; in data set [8] (Batch 2), 0%; in data set [9] (Batch 2), 0%; in data set [10] (Batch 2) it was 0.4%; in data set [11] (Batch 2) it was 8.2%; in data set [12] (Batch 2), 2.2%. For the same molecule, the Average % conversion in [13] (Batch 2) amounted to 2.9%; in [14] (Batch 2), 4.1%; in [15] (Batch 2), 14.6%; in data set [17] (Batch 2) it was 0.7%. In [17] (chromatographic analysis, FIGS. 5 and 6), the “new product at 3.12 minutes (3″-O-demethylclarithromycin) from clarithromycin” value is given as “not observed”.

B3: SeuC10M20: P450SeuC10 with L198W mutation, SEQ ID NO: 44 (protein)
chain: B1 chain with A198W
modifications: SeuC10M20
For the molecule B3, the Average % conversion amounted to 29.4% in data set [1] (Batch 1); 11.4% in data set [2] (Batch 1); 1.7% in data set [3] (Batch 1); 0% in [4] (Batch 1); 25% in data set [5] (Batch 1); 42.7% in data set [6] (Batch 1). The Average % conversion in data set [7] (Batch 1) was 0%; in data set [8] (Batch 1) it was 19.2%; in data set [9] (Batch 1), 45.3%; in data set [10] (Batch 1) it was 6.9%; in data set [11] (Batch 1) it was 5.9%; in data set [12] (Batch 1), 0.6%. In addition, the Average % conversion in data set [13] (Batch 1) turned out to be 13.7%; in data set [14] (Batch 1) it was 0%; in [15] (Batch 1), 16.5%; in [16], 10.3%; in [17] (Batch 1), 0%. Also, the “+16 Da (1.18 min) 253 m/z” value in [16] is 3.5%. For the same molecule, the “+16 Da (1.14 min) 253 m/z” value in data set [16] was 6.8%. For the same molecule, in data set [16], the “reaction products” value is recorded as “produce a new product”. Further, the “Parent (1.31 min) 237 m/z” value in data set [16] is given as 89.7%.

B4: SeuC10M13: P450SeuC10 with L198F mutation, SEQ ID NO: 30 (protein)
chain: B1 chain with A198F
modifications: SeuC10M13
As to B4, the Average % conversion is 29.4% in data set [1] (Batch 1); 31.2% in data set [2] (Batch 1); 39.1% in data set [3] (Batch 1); 0% in data set [4] (Batch 1); 12% in [5] (Batch 1); 98.1% in data set [6] (Batch 1). The Average % conversion in data set [7] (Batch 1) is given as 41.3%; in [8] (Batch 1), 14.7%; in data set [9] (Batch 1), 54.6%; in data set [10] (Batch 1), 26.8%; in [11] (Batch 1), 32.2%; in [12] (Batch 1), 0.8%. Also, the Average % conversion was found to be 27.9% in data set [13] (Batch 1); 0% in data set [14] (Batch 1); 38.2% in data set [15] (Batch 1); 45.4% in [16]; 0% in data set [17] (Batch 1). Further, in [16], the “+16 Da (1.18 min) 253 m/z” value is listed as 3.1%. Further, in [16], the “+16 Da (1.14 min) 253 m/z” value was 42.3%. Further, the “reaction products” value in [16] is on record as “produce a new product”. For the same molecule, the “Parent (1.31 min) 237 m/z” value in data set [16] is listed as 54.6%.

B5: M52: P450SeuC10 with T109D mutation, SEQ ID NO: 122 (protein)
chain: B1 chain with T109D, A198L
modifications: SeuC10M52
Regarding B5, the Average % conversion in [1] (Batch 2) came out at 65%; in data set [2] (Batch 2) it was 17.3%; in [3] (Batch 2) it was 24.8%; in [4] (Batch 2) it was 0%; in [5] (Batch 2), 16.1%; in data set [6] (Batch 2) it was 87.7%. Moreover, the Average % conversion in data set [7] (Batch 2) was 25.4%; in data set [8] (Batch 2), 3.1%; in data set [9] (Batch 2), 13%; in data set [10] (Batch 2), 29.7%; in [11] (Batch 2), 38.2%; in data set [12] (Batch 2), 17.2%. Also, the Average % conversion in data set [13] (Batch 2) worked out at 26.3%; in data set [14] (Batch 2) it was 0%; in data set [15] (Batch 2), 37.9%; in data set [17] (Batch 2), 1%.
